Biological target: mp2k6_human MAP2K6 (UniProt P52564)
UniProt P52564, sequence (P52564 whole entry): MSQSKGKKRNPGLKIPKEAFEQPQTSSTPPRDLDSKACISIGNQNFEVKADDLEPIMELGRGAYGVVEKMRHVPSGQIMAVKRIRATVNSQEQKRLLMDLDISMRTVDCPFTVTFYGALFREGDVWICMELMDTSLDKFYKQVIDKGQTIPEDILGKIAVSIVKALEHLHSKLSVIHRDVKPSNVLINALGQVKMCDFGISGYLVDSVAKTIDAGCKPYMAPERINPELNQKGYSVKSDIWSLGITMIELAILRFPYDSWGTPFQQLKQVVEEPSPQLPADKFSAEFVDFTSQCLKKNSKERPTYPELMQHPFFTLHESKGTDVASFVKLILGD

## Leucine-rich repeat serine/threonine-protein kinase 2 (Homo sapiens), Q5S007 R1441C
  effect of a mutation on the interaction: increasing interaction

Reference: IntAct's records for PubMed 20067578
